In the supplement of paper PMC10065799, “High-throughput profiling of sequence recognition by tyrosine kinases and SH2 domains using bacterial peptide display” (eLife, 2023):

What was measured:
[1] = test system: c-Src; assay: phosphorylation enrichment, bacterial display (enrichment ratio); higher = better substrate or ligand; peptides without Tyr show the background
[2] = molecular target: Fes (UniProt P07332); assay: as above
[3] = molecular target: EPHB2 (UniProt P29323); assay: as above
[4] = molecular target: FGFR3 (UniProt P22607); assay: as above
[5] = test system: c-Abl (mouse); assay: as above
[6] = molecular target: EPHB1 (UniProt P54762); assay: as above
[7] = molecular target: Jak2 (UniProt O60674); assay: as above
[8] = molecular target: FGFR1 (UniProt P11362); assay: as above
[9] = molecular target: MERTK (UniProt Q12866); assay: as above
[10] = molecular target: Fyn (UniProt P06241); assay: as above
[11] = test system: AncSZ; assay: as above
[12] = molecular target: Hck (UniProt P08631); assay: as above
[13] = test system: Fer (mouse); assay: as above
[14] = molecular target: SHP2-C SH2; assay: SH2 binding enrichment of the phosphorylated peptide, bacterial display (enrichment ratio); higher = better substrate or ligand; peptides without Tyr show the background
[15] = molecular target: c-Src SH2; assay: as above
[16] = molecular target: Grb2 SH2 (UniProt P62993); assay: as above
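Wherever SH2 binding enrichment of the phosphorylated peptide, bacterial display is given: peptide library displayed on the E. coli surface as eCPX fusions, selected cells deep-sequenced, score is each peptide's frequency after selection divided by its frequency in the input.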
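Wherever phosphorylation enrichment, bacterial display is given: 11-residue human phosphosite peptides and single-mutation variants displayed on the E. coli surface, counted by deep sequencing, each peptide's frequency after selection divided by its frequency in the unselected input library; frequency after pTyr selection over input frequency; kinase dosed for 20-30% of maximal phosphorylation in three min.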

Sequence of FGFR3 (P22607 whole entry, looked up): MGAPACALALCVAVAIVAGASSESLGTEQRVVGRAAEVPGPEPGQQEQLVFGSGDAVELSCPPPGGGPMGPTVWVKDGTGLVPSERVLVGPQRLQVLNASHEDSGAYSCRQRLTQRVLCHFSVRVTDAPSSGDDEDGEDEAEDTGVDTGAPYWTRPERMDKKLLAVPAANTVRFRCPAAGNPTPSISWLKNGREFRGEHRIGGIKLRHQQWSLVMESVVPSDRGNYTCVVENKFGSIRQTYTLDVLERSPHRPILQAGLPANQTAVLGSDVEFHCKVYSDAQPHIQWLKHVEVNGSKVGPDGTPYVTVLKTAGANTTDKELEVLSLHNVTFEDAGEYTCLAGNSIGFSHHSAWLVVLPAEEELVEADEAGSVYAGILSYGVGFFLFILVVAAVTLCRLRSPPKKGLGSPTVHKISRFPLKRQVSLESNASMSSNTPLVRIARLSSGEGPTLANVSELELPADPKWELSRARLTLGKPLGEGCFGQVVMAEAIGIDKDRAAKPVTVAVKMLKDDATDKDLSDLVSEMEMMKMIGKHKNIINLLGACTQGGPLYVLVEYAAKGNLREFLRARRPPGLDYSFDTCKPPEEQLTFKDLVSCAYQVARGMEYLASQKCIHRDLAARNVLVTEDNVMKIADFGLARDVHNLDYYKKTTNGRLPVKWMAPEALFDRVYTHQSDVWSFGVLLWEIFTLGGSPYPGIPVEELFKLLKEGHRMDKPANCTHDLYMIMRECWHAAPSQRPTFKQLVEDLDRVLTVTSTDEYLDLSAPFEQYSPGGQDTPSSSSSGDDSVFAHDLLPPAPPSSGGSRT
Sequence of Hck (P08631 whole entry, looked up): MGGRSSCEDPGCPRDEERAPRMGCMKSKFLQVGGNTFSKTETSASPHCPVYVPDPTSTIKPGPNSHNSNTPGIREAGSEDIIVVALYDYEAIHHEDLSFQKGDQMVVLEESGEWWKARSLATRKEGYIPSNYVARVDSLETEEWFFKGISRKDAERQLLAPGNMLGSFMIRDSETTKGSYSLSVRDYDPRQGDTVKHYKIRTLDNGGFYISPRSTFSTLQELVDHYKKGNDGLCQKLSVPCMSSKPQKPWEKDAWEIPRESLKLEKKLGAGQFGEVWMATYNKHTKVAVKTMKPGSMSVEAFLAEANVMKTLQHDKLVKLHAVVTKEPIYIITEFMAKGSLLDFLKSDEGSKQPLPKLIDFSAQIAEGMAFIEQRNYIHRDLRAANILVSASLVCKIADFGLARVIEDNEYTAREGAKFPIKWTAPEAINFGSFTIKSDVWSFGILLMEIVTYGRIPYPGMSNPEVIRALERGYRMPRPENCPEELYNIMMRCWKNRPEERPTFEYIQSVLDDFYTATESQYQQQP
Sequence of FGFR1 (P11362 whole entry, looked up): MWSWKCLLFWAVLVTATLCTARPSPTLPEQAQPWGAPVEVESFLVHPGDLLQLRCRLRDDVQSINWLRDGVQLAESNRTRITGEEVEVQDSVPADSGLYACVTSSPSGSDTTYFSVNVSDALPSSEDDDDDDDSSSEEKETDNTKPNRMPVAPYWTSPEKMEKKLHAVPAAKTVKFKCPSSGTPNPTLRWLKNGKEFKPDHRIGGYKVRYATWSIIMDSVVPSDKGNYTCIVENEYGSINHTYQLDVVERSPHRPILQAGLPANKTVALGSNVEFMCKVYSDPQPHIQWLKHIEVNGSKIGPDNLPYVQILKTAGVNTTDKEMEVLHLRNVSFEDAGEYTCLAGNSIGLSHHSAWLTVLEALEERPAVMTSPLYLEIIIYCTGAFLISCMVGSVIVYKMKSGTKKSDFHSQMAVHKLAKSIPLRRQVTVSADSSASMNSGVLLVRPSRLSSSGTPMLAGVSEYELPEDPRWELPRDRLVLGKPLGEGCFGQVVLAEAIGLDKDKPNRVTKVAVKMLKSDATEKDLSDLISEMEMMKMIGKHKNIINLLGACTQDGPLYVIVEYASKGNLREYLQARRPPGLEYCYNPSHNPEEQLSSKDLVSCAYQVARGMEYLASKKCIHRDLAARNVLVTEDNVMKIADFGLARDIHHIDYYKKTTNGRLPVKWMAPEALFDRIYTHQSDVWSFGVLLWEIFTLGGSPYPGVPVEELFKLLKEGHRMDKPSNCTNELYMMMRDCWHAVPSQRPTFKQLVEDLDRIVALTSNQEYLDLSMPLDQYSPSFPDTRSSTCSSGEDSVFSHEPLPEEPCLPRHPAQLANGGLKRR
Sequence of Fyn (P06241 whole entry, looked up): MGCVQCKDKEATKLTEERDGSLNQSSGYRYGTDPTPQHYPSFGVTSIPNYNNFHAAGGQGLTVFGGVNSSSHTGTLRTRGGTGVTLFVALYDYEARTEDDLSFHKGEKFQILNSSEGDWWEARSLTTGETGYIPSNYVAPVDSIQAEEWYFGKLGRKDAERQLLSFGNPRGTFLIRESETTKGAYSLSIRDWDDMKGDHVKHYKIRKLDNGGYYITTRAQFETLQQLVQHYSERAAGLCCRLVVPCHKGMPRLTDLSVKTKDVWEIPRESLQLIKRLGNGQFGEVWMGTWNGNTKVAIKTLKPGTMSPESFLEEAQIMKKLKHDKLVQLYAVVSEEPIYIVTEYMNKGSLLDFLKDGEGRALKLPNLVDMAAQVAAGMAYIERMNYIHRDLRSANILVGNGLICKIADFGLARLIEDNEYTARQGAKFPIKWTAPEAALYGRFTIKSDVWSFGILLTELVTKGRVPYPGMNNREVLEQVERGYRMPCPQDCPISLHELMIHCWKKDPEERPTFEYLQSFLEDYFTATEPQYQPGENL
Sequence of MERTK (Q12866 whole entry, looked up): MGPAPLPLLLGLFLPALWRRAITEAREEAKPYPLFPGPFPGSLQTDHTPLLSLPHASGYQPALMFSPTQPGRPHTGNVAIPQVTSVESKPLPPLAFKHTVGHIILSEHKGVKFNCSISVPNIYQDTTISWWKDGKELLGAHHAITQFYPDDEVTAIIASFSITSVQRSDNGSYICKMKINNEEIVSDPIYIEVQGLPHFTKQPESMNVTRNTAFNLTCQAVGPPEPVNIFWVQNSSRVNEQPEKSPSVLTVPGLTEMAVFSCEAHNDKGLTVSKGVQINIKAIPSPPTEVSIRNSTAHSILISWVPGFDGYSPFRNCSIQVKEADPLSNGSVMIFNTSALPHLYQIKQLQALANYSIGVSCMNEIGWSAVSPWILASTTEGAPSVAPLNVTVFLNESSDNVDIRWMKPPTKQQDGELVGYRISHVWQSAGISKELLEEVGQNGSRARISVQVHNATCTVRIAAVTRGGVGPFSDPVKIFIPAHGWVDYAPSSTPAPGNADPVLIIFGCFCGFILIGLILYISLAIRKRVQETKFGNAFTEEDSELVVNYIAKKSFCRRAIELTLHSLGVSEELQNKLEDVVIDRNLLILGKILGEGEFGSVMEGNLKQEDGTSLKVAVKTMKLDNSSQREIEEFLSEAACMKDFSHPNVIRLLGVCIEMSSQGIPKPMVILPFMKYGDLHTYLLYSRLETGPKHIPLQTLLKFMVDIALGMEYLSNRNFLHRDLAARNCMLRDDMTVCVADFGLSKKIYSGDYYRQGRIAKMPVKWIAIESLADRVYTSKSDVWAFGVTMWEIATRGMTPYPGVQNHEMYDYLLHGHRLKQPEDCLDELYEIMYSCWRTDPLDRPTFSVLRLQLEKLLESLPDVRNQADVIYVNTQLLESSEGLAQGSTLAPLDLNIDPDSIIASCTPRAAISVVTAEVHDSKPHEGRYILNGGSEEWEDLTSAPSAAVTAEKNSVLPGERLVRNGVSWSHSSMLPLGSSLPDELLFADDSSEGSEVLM
Sequence of Fes (P07332 whole entry, looked up): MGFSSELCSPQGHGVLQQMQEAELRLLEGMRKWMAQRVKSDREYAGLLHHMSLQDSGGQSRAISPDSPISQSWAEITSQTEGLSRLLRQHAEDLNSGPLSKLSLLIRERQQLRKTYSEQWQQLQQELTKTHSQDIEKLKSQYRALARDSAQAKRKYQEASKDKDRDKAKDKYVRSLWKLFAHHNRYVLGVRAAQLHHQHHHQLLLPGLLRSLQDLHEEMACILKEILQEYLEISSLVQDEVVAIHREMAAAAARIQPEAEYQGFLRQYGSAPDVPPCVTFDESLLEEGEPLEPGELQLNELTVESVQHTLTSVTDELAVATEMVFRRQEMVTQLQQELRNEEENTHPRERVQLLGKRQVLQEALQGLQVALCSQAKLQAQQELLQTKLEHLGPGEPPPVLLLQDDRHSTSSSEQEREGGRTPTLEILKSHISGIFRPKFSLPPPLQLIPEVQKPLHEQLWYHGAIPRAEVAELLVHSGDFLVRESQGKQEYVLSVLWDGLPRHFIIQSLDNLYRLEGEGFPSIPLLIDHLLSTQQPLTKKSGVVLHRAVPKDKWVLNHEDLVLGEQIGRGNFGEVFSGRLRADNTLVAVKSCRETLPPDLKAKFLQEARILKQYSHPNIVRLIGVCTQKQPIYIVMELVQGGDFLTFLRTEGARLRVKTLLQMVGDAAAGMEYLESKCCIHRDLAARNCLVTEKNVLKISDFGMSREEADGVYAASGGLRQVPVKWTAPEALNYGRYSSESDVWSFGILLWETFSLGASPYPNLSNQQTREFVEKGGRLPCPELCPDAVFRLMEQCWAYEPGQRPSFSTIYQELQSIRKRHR

SH2 binding enrichment [14]	SH2 binding enrichment [15]	SH2 binding enrichment [16]	Sequence	phosphorylation enrichment [1]	phosphorylation enrichment [2]	phosphorylation enrichment [3]	phosphorylation enrichment [4]	phosphorylation enrichment [5]	phosphorylation enrichment [6]	phosphorylation enrichment [7]	phosphorylation enrichment [8]	phosphorylation enrichment [9]	phosphorylation enrichment [10]	phosphorylation enrichment [11]	phosphorylation enrichment [12]	phosphorylation enrichment [13]
0.755	1.93	0.788	NRLTDYYEPLL [BBS10_Y536]	1.33	0.826	6.55	7.93	1.61	8.92	1.63	11	3.6	1.03	2.64	3.28	2.11
0.697	0.509	0.671	GLAELYEYQKK [CKAP5_Y1854_K1857Q]	0.813	0.985	0.472	0.629	0.529	0.909	0.917	0.61	0.574	0.532	1.08	0.857	0.87
0.565	0.447	0.843	PFRSIYFSSPK [MPG_Y75_YF]	0.669	0.666	0.571	0.809	0.398	0.382	0.553	0.599	0.463	0.658	0.851	1.11	0.595
1.12	0.968	1.01	YRTGHYLCNAC [GATA1_Y223_D218Y]	0.31	0.506	0.415	0.41	0.524	0.341	0.424	0.412	0.355	0.383	0.477	0.376	0.271
0.675	0.565	0.866	IGERTYGQVYK [CDK13_Y716_G714R]	6.07	0.555	0.416	0.41	0.536	0.409	0.516	0.381	0.408	9.16	0.507	3.64	0.392
0.906	0.744	1.09	LITTLYIGFLD [KCNQ1_Y267_G272D]	4.15	3.12	1.16	1.35	2.36	1.25	3.07	0.777	0.929	2.56	2.56	1.71	1.78
2.26	1.67	1.65	CTTIHYHFMCN [TP53_Y234_N235H_YF]	0.488	1.06	0.637	0.729	0.785	0.549	0.902	0.599	0.441	0.542	1.1	0.48	0.632
0.639	0.469	0.883	APGNAYGDAGF [SYP_Y250_D248N_YF]	0.322	0.504	0.313	0.412	0.443	0.351	0.52	0.373	0.348	0.339	0.527	0.433	0.369
1.06	0.747	0.988	LTQRTYMLENA [GPAA1_Y49_S51L]	0.479	1.01	0.541	0.929	0.623	0.783	0.64	0.866	0.536	0.858	0.843	0.547	0.468
0.811	0.537	0.726	CPFNLYAAQLS [HGD_Y40_E42A_YF]	0.961	1.29	1.24	0.816	0.874	1.79	1.02	0.573	1.7	0.648	1.2	1.09	0.76
0.998	0.34	0.832	EFLHKYKGFKI [SYNE1_Y6953_Q6951H_YF]	0.508	0.765	0.264	0.545	0.697	0.458	0.667	0.397	0.431	0.318	0.857	0.435	0.379
0.897	4.19	4.75	IRGNMYYENSY [EGFR_Y112]	0.526	0.733	0.594	0.665	0.449	0.486	0.55	0.58	1.06	0.468	0.761	0.603	0.535
0.726	0.581	0.943	TLMNAYSSRCH [KIF11_Y231_S235C]	0.471	0.836	0.553	0.637	0.738	0.602	0.776	0.492	0.448	0.571	1	0.496	0.535
0.659	0.384	1.29	QMIETYFDFRL [NSMF_Y506]	8.42	2.56	1.36	5.67	1.62	3.62	6.57	7.65	2.65	6.04	2.67	5.25	0.622
0.635	0.424	0.882	KNRDVSSSDFF [USP24_Y2134_Y2134S_YF]	0.399	0.71	0.393	0.539	0.583	0.444	0.641	0.365	0.436	0.432	0.701	0.425	0.427
0.604	0.447	0.776	QKMADYSNKLY [PDPR_Y104]	0.509	0.717	0.455	0.735	0.555	0.492	0.579	0.436	0.535	0.515	0.61	0.692	0.435
